The chains are these.
B1: KLTCLASYC-Nal-LF (peptide)
peptide: KLTCLASYC[Nal]LF
modifications: not fully specified; printed as KLTCLASYC-Nal-LF; cysteine pairing not given here

Bridge positions count the residues as written; N and C are the ends. Square brackets hold non-standard residues; d marks the D form. Primed or numbered codes have the meaning given here. Ends that are not written are not given here. * marks the point of attachment. Biotin = O=C1N[C@H]2[C@H](CS[C@H]2CCCCC(=O)*)N1; PEG2(3) = PEG2 spacer carrying biotin on Lys; (PEG)4 = polyethylene glycol, 4 units Some results are limits rather than exact numbers.

This assay concerns the target human Factor IXa (human, UniProt P00740 47-191; P00740 227-461). Put plainly: cell-based or functional assay.
Consider KLTCLASYCWLF-{(PEG)4-NH2} (cysteine pairing not given here) [KLTCLASYCWLF-(PEG)4-CONH2], for which the “EC50 [µM], FXa generation assay” value was above 1 µM.

Consider MEGTRQPTCLASYCSPFQYVAP, for which the “EC50 [µM], FXa generation assay” value is above 20 µM.

Consider QLTCLASECGLS, for which the “EC50 [µM], FXa generation assay” value was above 20 µM.

Take QLTCLASYCGGV: the “EC50 [µM], FXa generation assay” value is above 20 µM.

Take KGRCLTSHCWLF: the “EC50 [µM], FXa generation assay” value was above 20 µM.

Turning to KLKCLSSECQLL, the “EC50 [µM], FXa generation assay” value is above 20 µM.

Consider RSFTSELTCLASSCRRFHHVPP, for which the “EC50 [µM], FXa generation assay” value is above 20 µM.

For the molecule B1, the “EC50 [µM], FXa generation assay” value was below 0.5 µM.

For the molecule KLSCQAGQCWVF, the “EC50 [µM], FXa generation assay” value was above 1 µM.

For KLTCLATYCWLF, the “EC50 [µM], FXa generation assay” value was above 1 µM.

{(PEG)27-(PEG)27}-KLTCLASYCWLF (cysteine pairing not given here) [(PEG)27(PEG)27-KLTCLASYCWLF]: the “EC50 [µM], FXa generation assay” value is above 1 µM.

For AWPYHKPTCLASQCWQFLAQGS, the “EC50 [µM], FXa generation assay” value was above 50 µM.

With VQRSTQLTCLYGGCRLFGWNYH, the “EC50 [µM], FXa generation assay” value was above 20 µM.

With SLADTQLTWLARQYWLSVSEGS, the “EC50 [µM], FXa generation assay” value is above 20 µM.

Regarding GCSSDKLTARTRHCSMFQPLSV, the “EC50 [µM], FXa generation assay” value is above 20 µM.

Consider Ac-KLTCLASYCWLF (not fully specified; cysteine pairing not given here) [Ac-KLTCLASYCWLF], for which the “EC50 [µM], FXa generation assay” value was above 1 µM.

Consider GAQLDKETCLASYCQLFSTVRR, for which the “EC50 [µM], FXa generation assay” value is above 20 µM.

On to NLTGRASYGWLP, for which the “EC50 [µM], FXa generation assay” value was above 20 µM.

For GVEDRQLTCLASSCWVFSRHSV, the “EC50 [µM], FXa generation assay” value was above 1 µM.

Regarding SCVKHELKCLSSDSRLFSAVQR, the “EC50 [µM], FXa generation assay” value was above 20 µM.

For the molecule RRCPGKLQALASYCWLFWTGIA, the “EC50 [µM], FXa generation assay” value was above 1 µM.

Turning to KLTCLASYCQLV, the “EC50 [µM], FXa generation assay” value was below 0.5 µM.

WVPQWKVTCLASCSRLFHGFDA: the “EC50 [µM], FXa generation assay” value is above 5 µM.

For TLDSKNLQCLGSSCWLFSSGLS, the “EC50 [µM], FXa generation assay” value is above 20 µM.

With ERYRLDMTCMASQCWQFPPAAG, the “EC50 [µM], FXa generation assay” value is below 0.5 µM.

With KLTCRASYCQLF, the “EC50 [µM], FXa generation assay” value was above 1 µM.

For the molecule DSRSAKRKCLASYCWLFGIGQA, the “EC50 [µM], FXa generation assay” value is above 20 µM.

As for KLTCLASQCWLF, the “EC50 [µM], FXa generation assay” value is below 0.5 µM.

Turning to TLTCRASYCQLF, the “EC50 [µM], FXa generation assay” value is above 1 µM.

With WHERQQLTCLASYCGLFVGQVA, the “EC50 [µM], FXa generation assay” value was below 0.5 µM.

On to GSCRDQLTCLSSDRWQFFRRVS, for which the “EC50 [µM], FXa generation assay” value is above 20 µM.

Turning to SYGRTKLTCLASSCWLFGQVHG, the “EC50 [µM], FXa generation assay” value is above 10 µM.

Consider RYQRARLTCLASYCGLLFSMSA, for which the “EC50 [µM], FXa generation assay” value was above 15 µM.

As for LQELTKLTCLARSGWLVCNPGY, the “EC50 [µM], FXa generation assay” value was above 20 µM.

Take AVAINKVPCVASYCQLFESKIH: the “EC50 [µM], FXa generation assay” value was above 20 µM.

Regarding AQTRVARCCQLF, the “EC50 [µM], FXa generation assay” value is above 20 µM.

Consider {Biotin-PEG2(3)}-LYTAWIKCQFARLPGCALSGRW (cysteine pairing not given here) [Biotin-PEG2-LYTAWIKCQFARLPGCALSGRW], for which the “EC50 [µM], FXa generation assay” value was above 10 µM.

Take MAGMLKLTCFASYCGLFPLVSS: the “EC50 [µM], FXa generation assay” value was below 0.5 µM.

Regarding VAHYGKVTCLASYCQPLPSVGA, the “EC50 [µM], FXa generation assay” value is above 20 µM.

Regarding KLTCLASYCWYF, the “EC50 [µM], FXa generation assay” value is below 0.5 µM.

On to LRTQPKVTGLASCSGLVNCSRD, for which the “EC50 [µM], FXa generation assay” value is above 20 µM.

With EQTCLASYCWLF, the “EC50 [µM], FXa generation assay” value was above 20 µM.

As to MLTCIASYCQLG, the “EC50 [µM], FXa generation assay” value is above 20 µM.

As to KLTCQASYCWLF, the “EC50 [µM], FXa generation assay” value is above 1 µM.

{(PEG)27}-KLTCLASYCWLF (cysteine pairing not given here) [(PEG)27-KLTCLASYCWLF]: the “EC50 [µM], FXa generation assay” value is above 1 µM.

With RPGGGKVTCQASYCWPFLARAG, the “EC50 [µM], FXa generation assay” value was above 20 µM.

In the case of RCAQSRLPWLVSYCWLFSPYGM, the “EC50 [µM], FXa generation assay” value is above 5 µM.

For LRQRLAKTCVASYCWLFSLVAS, the “EC50 [µM], FXa generation assay” value is above 10 µM.

Regarding QQTCQASQCQLF, the “EC50 [µM], FXa generation assay” value is above 20 µM.

For the molecule KLTCLASYCWXF (not fully specified; Nle 11) [KLTCLASYCW-Nle-F], the “EC50 [µM], FXa generation assay” value is below 0.5 µM.

Turning to KKTCVASFCQMI, the “EC50 [µM], FXa generation assay” value was above 5 µM.

Take KEGFAQLPCLVCQGGLFSPRAI: the “EC50 [µM], FXa generation assay” value is above 20 µM.

For GASSDKLTCRTRHCSMFQPLSV, the “EC50 [µM], FXa generation assay” value is above 20 µM.

On to VGEHRKISCVASNCQLLRSGLA, for which the “EC50 [µM], FXa generation assay” value is above 20 µM.

On to SISGQQLTCRASHCWLNLPWHS, for which the “EC50 [µM], FXa generation assay” value is above 20 µM.

Turning to QLPCLASYCGLF, the “EC50 [µM], FXa generation assay” value was above 20 µM.

On to KLTCLASYCWLF-OH (disulfide 4-9 (inferred)) [KLTCLASYCWLF-COOH], for which the “EC50 [µM], FXa generation assay” value was above 1 µM.

As to NPTCQASYCQLF, the “EC50 [µM], FXa generation assay” value was above 20 µM.

For the molecule HMQWGKLPCLASYCWLFWYGIG, the “EC50 [µM], FXa generation assay” value is above 1 µM.

The record behind these values is patent US20140303084A1 (Biogen, published 2014).
